The target of one test is T1, HGREM1-His (ACRO) (human, UniProt O60565 25-184).
T1 construct: Lys25-Asp184 of NP_037504 with C-terminal polyhistidine tag (ACRO GR1-H52H3); they are put here; also called hGREM1 (ACRO); human gremlin (ACRO)
T1 sequence: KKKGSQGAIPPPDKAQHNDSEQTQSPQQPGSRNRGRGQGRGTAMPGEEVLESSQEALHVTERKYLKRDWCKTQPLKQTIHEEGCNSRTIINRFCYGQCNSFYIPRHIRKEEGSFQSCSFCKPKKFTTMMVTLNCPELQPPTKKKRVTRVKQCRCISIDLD
Kind of test: ELISA on coated Gremlin-his (column Gremlin). The method, then: Binding affinities to hGREM1 and XM5 were also compared. Briefly, XM5-Fc or Gremlin-his […] was coated. 100 μl of block solution consisting of PBS+1% BSA+1% normal goat serum+0.5% Tween 20 (Sigma) was added to each well and incubated at room temperature for 2 hours. 4-fold serial antibody dilution from 2 μg/ml were added. Afterward the plates were washed three times with 200 ul of PBS+0.1% Tween20 followed by adding 100 μl/well 1:10000 Goat anti mouse IgG-HRP (abeam), and incubate for 1 hour at room temperature. They were then washed 3× with PBS+0.1% Tween20. Finally, 100 μl/well of TMB (InnoReagents) was added to each well and after 2 minutes add 50 ul of stop solution to each well. The plates were read on a Multiscan FC microplate reader (Thermo Scientific) at […]. The EC50 values were show in table below.
For orientation: An ELISA detects its analyte on a solid surface through an enzyme-linked reagent.

The target in another test is T2, Mouse Gremlin-His (R&D) (mouse, UniProt O70326 25-184).
T2 construct: Lys25-Asp184 with 10xHis, R&D 956-GR; also called mouse gremlin (R&D); mGREM1
T2 sequence: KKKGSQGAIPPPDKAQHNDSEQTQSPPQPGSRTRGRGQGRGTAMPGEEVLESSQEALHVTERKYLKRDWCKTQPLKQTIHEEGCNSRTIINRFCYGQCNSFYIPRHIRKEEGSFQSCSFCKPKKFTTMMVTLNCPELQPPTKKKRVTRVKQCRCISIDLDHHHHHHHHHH
Kind of test: ELISA on coated Mouse Gremlin-his, anti-mouse IgG-HRP. The method, then:
Clear polystyrene plates (BEAVER) were coated with 100 μl/well of a […] hGREM1 (ACRO) and mouse gremlin (R&D) in high pH coating buffer overnight at 4° C. Then the plates were washed once on an automatic plate washer using PBS+0.1% Tween 20 (Sigma). 100 μl of block solution consisting of PBS+1% BSA+1% normal goat serum+0.5% Tween 20 (Sigma) was added to each well and incubated at room temperature for 2 hours. Then 100 μl of antibodies in antibody dilution buffer containing PBS+1% BSA+1% normal goat serum+0.01% Tween 20 starting from 2 μg/ml and then serial dilutions were added to each well of the plate and incubated for 1 hours at room temperature. Afterward the plates were washed three times with 200 μl of PBS+0.1% Tween20 followed by adding 100 μl/well 1:10000 Goat anti mouse IgG-HRP (abcam), and incubate for 1 hour at room temperature. They were then washed 3× with PBS+0.1% Tween20. Finally, 100 µl/well of TMB (Pierce) was added to each well and after several minutes add 50 μl of stop solution to each well. The plates were read on a Multiscan FC microplate reader (Thermo Scientific) at […].

As usually defined, the EC50 is the concentration giving half of the maximal effect. Lower therefore signals greater potency.

B1: 36F5 (antibody, V domains shown)
VH: QVQLQQSGAELARPGASVKLSCKASGYSFTSSGIGWVKQRSGQGLEWIGEIYPRSGNTYNNEKFKGKATLTADKSSSTVYMELRSLTSEDSAVYFCVREAYSHHYYAMDYWGQGTSVTVFS
VL: DVLMTQTPLSLPVSLGGQASISCRSSQSLLHSNGNTYLEWYLQKPGQSPKLLIYKVSNRFSGVPDRLSGSGSGTDFTLKISRVEAEDLGVYYCFQGSHVPFTFGSGTKLEIN
notes: mouse hybridoma antibody; also called hybridoma 36F5
On to B1, for which a half-maximal response in the test with HGREM1-His (ACRO) (EC50) required 0.0147 mg/L.

B2: 14E3 (antibody, V domains shown)
VH: QIQLVQSGPELKKPGETVKISCKTSGSTFTTYGMAWMKQAPGKGLTWMGWINTLSGEPTYADDFKGRFAFSLKTSANTAYLQINNLKNEDAATYFCAREPMDYWGQGTSVIVSS
VL: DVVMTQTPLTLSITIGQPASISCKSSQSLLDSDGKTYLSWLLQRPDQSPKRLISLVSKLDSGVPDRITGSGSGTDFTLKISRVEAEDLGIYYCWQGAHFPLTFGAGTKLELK
notes: mouse hybridoma antibody; also called hybridoma 14E3; anti-gremlin1 antibody 14E3
Take B2: in the test with Mouse Gremlin-His (R&D), the binding result was “no binding”.

The values are drawn from patent US20240294622A1 (SUZHOU TRANSCENTA THERAPEUTICS, published 2024).
